Measured values reported in patent US20210032353A1 (NATIONAL HEALTH RESEARCH INSTITUTES, published 2021).

B1: R2C9-11 monoclonal antibody (antibody, V domains shown)
VH: QVQLQQPGAELVKPGASVKLSCKASGYTFTSYWMHWVKQRPGQGLEWIGEINPSNGRTNYNEKFKSKATLTVDKSSSTAYMQLSSLTSEDSAVYYCANLYFDVWGAGTTVTVSS
VL: DIVMTQSPSSLSVSAGEKVTMSCKSSQNLLNSGNQKYYLAWYQQKPGQPPKLLIYGASIRESGVPDRFIGSGSGTDFTLTISSVQAEDLAVYFCQSDHSYPYTFGGGTKLEIK
notes: Mouse monoclonal antibody purified from hybridoma supernatant; An IgG2a isotype antibody served as its control; also called R2C9-11 mAb
B2: R2C7-1 monoclonal antibody (antibody, V domains shown)
VH: EVQLQQSGPELVKPGASVKISCKASGYSFTDYFINWVIQRHGKSLEWVGRINPYNGGSFYNQKFKDKATLTVDKSSNIAHMELRSLASEDSAIYYCARSGGNGYDYWGQGTTLTVSS
VL: DIVMTQAAPSVPVIPGESVSISCRSSKSLLHSNGNTYLYWFLQRPGQSPQLLIYRMSNLASGVPDRFSGSGSGTAFTLRISRVEAEDVGVYYCMQHLEYPYTFGGGTKVEIK
notes: Mouse monoclonal antibody purified from hybridoma supernatant; An IgG2a isotype antibody served as its control; also called R2C7-1 mAb

How the values were obtained:
[1] = biological target: T1, VEGFR2 (KDR)-IgD 4-7 (human, UniProt P35968 328-753); assay: Biacore; antibody as flow analyte, KDR-IgD4-7 as ligand
T1 construct: domain: IgD4-7; Expressed in E. coli; also called recombinant IgD4-7 of VEGFR2; VEGFR2-ED Ig D4-7

[2] = biological target: T2, VEGFR3 (Flt-4)-IgD 4-7 (UniProt P35916 331-764, limits assumed); assay: Biacore; antibody as flow analyte, Flt 4-IgD4-7 as ligand
T2 construct: domain: IgD4-7; The methods describe no D4-7 construct of VEGFR3; tag and expression host are unknown; also called recombinant IgD4-7 of VEGFR3
T2 sequence (looked up): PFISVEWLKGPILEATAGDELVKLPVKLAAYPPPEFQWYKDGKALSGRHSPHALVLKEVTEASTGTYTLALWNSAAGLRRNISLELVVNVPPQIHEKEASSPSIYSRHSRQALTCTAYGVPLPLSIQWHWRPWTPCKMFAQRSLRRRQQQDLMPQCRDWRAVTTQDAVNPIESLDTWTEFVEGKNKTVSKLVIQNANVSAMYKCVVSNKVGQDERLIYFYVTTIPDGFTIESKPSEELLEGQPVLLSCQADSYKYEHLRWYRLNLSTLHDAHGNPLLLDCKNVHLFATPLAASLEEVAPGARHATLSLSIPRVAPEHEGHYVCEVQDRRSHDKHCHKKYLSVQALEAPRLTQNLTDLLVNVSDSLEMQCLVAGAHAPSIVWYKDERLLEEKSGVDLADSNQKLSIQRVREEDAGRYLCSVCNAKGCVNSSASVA

[3] = biological target: T3, R2-IgD4-5 (human, UniProt P35968); assay: cell-based competitive ELISA: R2C9-11 absorbed with the soluble domains, then bound to fixed 293T/VEGFR2 cells, OD405
T3 construct: recombinant fragment; also called immunoglobin-like domains 4-5 of VEGFR2
Description: The optimal concentration of R2C7-1 and R2C9-11 mAbs (200 μg/mL and 50 μg/mL, respectively) were absorbed with the designated doses of the individual immunoglobin-like domains of VEGFR2 (R2-IgDs) antigens. After, the fixed 293T/VEGFR2 cells were incubated with the absorbed antibodies at 37° C. for 30 min. The bound antibodies were probed with goat-anti-mouse IgG conjugated with HRP, visualized by addition of ABTS, and measured at OD₄₀₅ using the SpectraMax microplate reader. Data are represented as means±S.D. of the percentage of isotype control (CTL) in triplicate. The potential epitope locations of R2C7-1 (upper) and R2C9-11 (lower) on the VEGFR2 antigen are indicated by black lines spanning IgD6 and IgD7 in the schematics.
To define the recognition epitopes of R2C7-1 and R2C9-11 antibodies, cell-based competitive enzyme-linked immunosorbent assay (ELISA) was performed. HEK293T/VEGFR2 transfectants (5 X×10⁴/well) were coated and fixed on 96-well plates. The optimal concentrations, the highest concentration of the log phase, of R2C7-1 and R2C9-11 antibodies for binding to the cells, were determined using a standard ELISA procedure (data not shown). […]
The epitopes of R2C7-1 and R2C9-11 anti-VEGFR2 antibodies were determined by cell-based competitive ELISA. […]

[4] = biological target: T4, R3-IgD7 (human, UniProt P35916); assay: cell-based competitive ELISA: R2C7-1 absorbed with the soluble domain, then bound to 293T/VEGFR3 cells, OD405
T4 construct: recombinant fragment; also called immunoglobin-like domain 7 of VEGFR3
T4 sequence (receptor fragment, looked up): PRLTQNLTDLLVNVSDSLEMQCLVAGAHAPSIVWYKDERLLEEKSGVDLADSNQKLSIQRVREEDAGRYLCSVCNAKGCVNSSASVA
Description: (§1) Panel A, Cell-based competitive. ELISA. HEK293T cells expressing VEGFR3 (293T/VEGFR3) were coated in 96-well plates. The optimal concentrations of R2C7-1 and R2C9-11 mAbs were determined as described previously (data now shown). The optimal concentrations of R2C7-1 and R2C9-11 mAbs were absorbed with the designed doses of the individual immunoglobin-like domains of VEGFR3 (R3-IgDs) antigens, as indicated. The bound antibodies were immune-probed with secondary antibody conjugated with HRP, visualized by addition of ABTS, and measured at OD₄₀₅ using a microplate reader (SpectraMax). Data are represented as means±S.D. of percentage of isotype control (CTL) in triplicate. The epitope locations of R2C7-1 and R2C9-11 on the VEGFR3 antigen are indicated by the black lines spanning IgD6 in the schematics. Panel B, Native gel electrophoresis. The whole extracellular domain (R3-IgD1-7), domain 3-4 (R3-IgD3-4) and domain 6-7 (R3-IgD6-7) were constructed, expressed in the E. coli, and purified using the anti-Myc affinity purification system. The purity and molecular weight of each recombinant protein were visualized with a standard Western blot using anti-Myc antibody as probe (left). The binding of R2C7-1 and R2C9-11 to the VEGFR3 truncated antigens was evaluated with native gel electrophoresis to confirm the epitopes of R2C7-1 and R2C9-11 mAbs (middle and right, respectively).
(§2) The same methodology was adopted to define the epitopes of the antibodies on VEGFR3. To determine the optimal concentrations of the antibodies for VEGFR3, HEK293T/VEGFR3 transfectants were used as targets (data not shown). Subsequently, the antibodies with optimal concentrations were absorbed with individual recombinant extracellular domains of VEGFR3 (R3-IgDs) for competing the binding epitopes. Similarly, their major epitopes were both located in IgD6, but not in IgD7, of VEGFR3. To conform this finding, Western blotting analysis of different recombinant IgD proteins was carried out using native gel electrophoresis.

[5] = biological target: T5, VEGFR3 IgD5 (individual recombinant immunoglobin-like domain 5 of VEGFR3) (UniProt P35916 422-552, limits assumed); assay: as above
T5 construct: domain: IgD5
T5 sequence (looked up): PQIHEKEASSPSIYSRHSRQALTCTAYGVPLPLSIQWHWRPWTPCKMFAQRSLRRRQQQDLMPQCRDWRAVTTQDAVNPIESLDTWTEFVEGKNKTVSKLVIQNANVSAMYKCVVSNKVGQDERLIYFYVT
Description: as §1, §2

T1 sequence (P35968 328-753 limits assumed): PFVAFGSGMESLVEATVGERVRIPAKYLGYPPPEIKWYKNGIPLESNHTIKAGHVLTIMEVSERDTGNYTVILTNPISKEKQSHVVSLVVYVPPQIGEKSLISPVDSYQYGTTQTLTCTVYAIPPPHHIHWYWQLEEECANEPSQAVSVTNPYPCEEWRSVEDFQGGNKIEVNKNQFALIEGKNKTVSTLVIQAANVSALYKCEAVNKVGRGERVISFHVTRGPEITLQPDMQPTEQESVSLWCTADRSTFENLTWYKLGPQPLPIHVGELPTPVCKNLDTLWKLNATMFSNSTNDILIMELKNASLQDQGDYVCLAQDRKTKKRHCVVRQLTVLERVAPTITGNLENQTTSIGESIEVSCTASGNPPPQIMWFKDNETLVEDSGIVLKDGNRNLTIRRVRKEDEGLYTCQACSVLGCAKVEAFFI
T3 sequence (P35968 328-548 limits assumed): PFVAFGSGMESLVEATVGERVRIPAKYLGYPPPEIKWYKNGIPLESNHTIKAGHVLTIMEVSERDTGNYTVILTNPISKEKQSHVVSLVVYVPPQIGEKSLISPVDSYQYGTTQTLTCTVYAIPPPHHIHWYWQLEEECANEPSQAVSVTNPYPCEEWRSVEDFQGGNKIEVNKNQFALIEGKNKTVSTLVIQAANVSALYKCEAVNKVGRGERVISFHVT

Binder	koff [1] [s⁻¹]	koff [2] [s⁻¹]	kon [2] [M⁻¹ s⁻¹]	binding result [3]	binding result [4]	binding result [5]
B1	1.3e-05	0.0034	3.2e+06	no binding (tested: 20 (unit not printed on the sheet))	–	–
B2	0.0024	0.0049	1.5e+06	–	no binding (tested: 10 (unit not printed on the sheet))	no binding (tested: 10 (unit not printed on the sheet))
